Source: patent EP4714971A1 (Shanghai Hansoh Biomedical Co., Ltd., dated 2024)
Where two headings read alike, the source gives them in different places.

T1: cynomolgus monkey SEZ6 expressed on stably transfected CHO-K1 cells (cynomolgus monkey, UniProt Q53EL9 20-994 (human entry))
T1 construct: also called CHO-cynoSEZ6; monkey SEZ6 on the cell membrane
T1 chain: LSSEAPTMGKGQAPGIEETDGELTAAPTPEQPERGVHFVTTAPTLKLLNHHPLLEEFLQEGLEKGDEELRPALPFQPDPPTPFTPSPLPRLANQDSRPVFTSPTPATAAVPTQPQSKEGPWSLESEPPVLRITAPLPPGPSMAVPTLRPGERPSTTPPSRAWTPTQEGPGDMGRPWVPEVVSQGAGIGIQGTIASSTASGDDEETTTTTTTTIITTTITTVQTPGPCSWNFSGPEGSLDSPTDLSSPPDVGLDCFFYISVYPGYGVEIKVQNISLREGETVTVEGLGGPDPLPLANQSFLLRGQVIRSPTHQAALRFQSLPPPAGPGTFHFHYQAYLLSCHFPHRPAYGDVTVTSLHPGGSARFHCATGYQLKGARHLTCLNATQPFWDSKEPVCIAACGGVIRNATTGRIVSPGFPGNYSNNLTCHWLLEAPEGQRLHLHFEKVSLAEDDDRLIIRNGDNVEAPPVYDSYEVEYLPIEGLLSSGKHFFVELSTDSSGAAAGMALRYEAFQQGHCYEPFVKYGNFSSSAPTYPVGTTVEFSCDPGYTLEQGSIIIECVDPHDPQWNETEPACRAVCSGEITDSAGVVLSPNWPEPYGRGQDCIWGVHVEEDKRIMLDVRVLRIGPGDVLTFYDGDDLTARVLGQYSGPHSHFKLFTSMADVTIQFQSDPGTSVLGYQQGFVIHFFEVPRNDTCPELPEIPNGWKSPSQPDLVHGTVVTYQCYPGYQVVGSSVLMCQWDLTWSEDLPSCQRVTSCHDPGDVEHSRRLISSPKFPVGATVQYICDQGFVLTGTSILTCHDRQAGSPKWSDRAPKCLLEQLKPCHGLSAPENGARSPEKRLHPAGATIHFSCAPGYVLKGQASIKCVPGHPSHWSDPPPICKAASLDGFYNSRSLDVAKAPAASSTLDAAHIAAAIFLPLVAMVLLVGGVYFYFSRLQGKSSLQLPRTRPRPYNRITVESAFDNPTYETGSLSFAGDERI

T2: human SEZ6 expressed on stably transfected CHO-K1 cells (human, UniProt Q53EL9 20-994)
T2 construct: also called CHO-SEZ6; hSEZ6
T2 sequence: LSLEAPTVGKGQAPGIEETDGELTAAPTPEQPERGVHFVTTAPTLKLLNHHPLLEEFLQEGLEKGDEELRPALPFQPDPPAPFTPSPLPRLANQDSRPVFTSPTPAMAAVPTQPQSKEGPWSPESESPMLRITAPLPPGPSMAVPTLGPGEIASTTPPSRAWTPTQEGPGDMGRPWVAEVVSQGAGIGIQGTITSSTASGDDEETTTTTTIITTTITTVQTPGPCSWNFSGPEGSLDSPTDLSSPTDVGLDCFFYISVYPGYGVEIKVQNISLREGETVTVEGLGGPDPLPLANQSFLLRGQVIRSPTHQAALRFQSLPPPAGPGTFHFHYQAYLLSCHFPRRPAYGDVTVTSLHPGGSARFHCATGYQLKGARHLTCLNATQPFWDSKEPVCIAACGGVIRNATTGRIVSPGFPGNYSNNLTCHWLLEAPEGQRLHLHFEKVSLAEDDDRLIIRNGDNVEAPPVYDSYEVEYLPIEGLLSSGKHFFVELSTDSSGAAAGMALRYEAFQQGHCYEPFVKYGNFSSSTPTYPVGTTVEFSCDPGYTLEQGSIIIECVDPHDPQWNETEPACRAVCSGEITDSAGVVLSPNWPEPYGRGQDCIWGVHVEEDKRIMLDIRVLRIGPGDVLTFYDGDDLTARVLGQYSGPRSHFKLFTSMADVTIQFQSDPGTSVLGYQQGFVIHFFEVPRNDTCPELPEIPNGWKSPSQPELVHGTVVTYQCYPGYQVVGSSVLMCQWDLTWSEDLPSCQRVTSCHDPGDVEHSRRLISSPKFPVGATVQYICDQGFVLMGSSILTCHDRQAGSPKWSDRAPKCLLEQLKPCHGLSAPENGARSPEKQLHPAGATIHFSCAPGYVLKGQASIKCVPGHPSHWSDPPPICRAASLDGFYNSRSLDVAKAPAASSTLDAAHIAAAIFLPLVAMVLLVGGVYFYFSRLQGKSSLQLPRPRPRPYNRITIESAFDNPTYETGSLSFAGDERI


Assays:
[1] = target: T1, cynomolgus monkey SEZ6 expressed on …; test: flow cytometry on CHO-K1 cells expressing cynomolgus monkey SEZ6
[2] = target: T2, human SEZ6 expressed on stably …; test: flow cytometry on CHO-K1 cells expressing human SEZ6
[3] = target: T2, human SEZ6 expressed on stably …; test: as above; remark: listed apart in the source
[4] = target: T2, human SEZ6 expressed on stably …; test: as above; remark: listed apart in the source

Binder | EC50 [1] | MFImax [1] | EC50 [2] | MFImax [2] | EC50 [3] | MFImax [3] | EC50 [4] | MFImax [4]
cAb3014 (antibody, V domains shown) VH: QVQLQQPGAELVKPGASVKLSCKASGYTFSIYWMHWVKQRPGQGLEWIGMIHPNSGSTNYNEKFKSKATLTVDKSSSTAYMQLSSLTSEDSAVYYCARGGNYVAMDYWGQGTSVTVSS VL: QIVLTQSPAIMSASLGERVTMTCTASSSVSSSYLHWYQQKPGSSPKLWIYSTSNLASGVPARFSGSGSGTSYSLTISSMEAEDAATYYCHQYHRSLTFGSGTKLEIK | 0.65 nM | 13400 | 0.85 nM | 3030 | – | – | – | –
PR3121 (antibody, human IgG1, kappa, V domains shown, Humanized, human IgG1, kappa; also called humanized antibody of cAb3014) VH: EVQLVQSGAEVKKPGSSVKVSCKASGYTFSIYWMHWVRQAPGQGLEWIGMIHPNSGSTNYNEKFKSRATLTVDKSTSTAYMELSSLRSEDTAVYYCARGGNYVAMDYWGQGTLVTVSS VL: DIQMTQSPSSLSASVGDRVTITCTASSSVSSSYLHWYQQKPGKAPKLLIYSTSNLASGVPSRFSGSGSGTDFTLTISSLQPEDFATYYCHQYHRSLTFGGGTKVEIKR | – | – | – | – | 0.45 nM | 1020 | – | –
PR3123 (antibody, human IgG1, kappa, V domains shown, Humanized, human IgG1, kappa; Only the order of listing separates it from PR3121; also called humanized antibody of cAb3014) VH: EVQLVQSGAEVKKPGSSVKVSCKASGYTFSIYWMHWVRQAPGQGLEWIGMIHPNSGSTNYNEKFKSRATLTVDKSTSTAYMELSSLRSEDTAVYYCARGGNYVAMDYWGQGTLVTVSS VL: DIQLTQSPSSLSASVGDRVTMTCTASSSVSSSYLHWYQQKPGKSPKLWIYSTSNLASGVPSRFSGSGSGTDYTLTISSLQPEDFATYYCHQYHRSLTFGGGTKVEIKR | – | – | – | – | 0.56 nM | 966 | – | –
cAb3031 (antibody, V domains shown) VH: DVQLQESGPGLVKPSQSLSLTCSVTGQSITSGYFWNWIRQLPGNKLEWMGHIRYDGNNNYNPSLKNRVSITRDTSKNQFFLKLNSVTTEDTATYYCARWLLRYYAMDSWGQGTSVTVSS VL: not shown | 0.54 nM | 15200 | 0.42 nM | 5180 | – | – | – | –
cAb3006 (antibody, V domains shown) VH: QVQLQQSGAELARPGASVTLSCKASGYTFTDYEMHWVKETPVDGLEWIGGIDPETDNTVYNQKFKVKAILTEDKSSRIAYMELRSLTSEDSAVYYCTRGDWYFDVWGTGTTVTVSS VL: DIVMSQSPSSQAVSVGEKVTMSCKSSQSLLNSRTRENYLAWYQQKAGQSPKLLIYWASTRDSGVPDRFTGSGSGTDFTLTINSVQAEDLAVYYCKQSYNLFTFGSGTKLEIK | 0.41 nM | 15000 | 0.35 nM | 4830 | – | – | – | –
cAb3009 (antibody, V domains shown) VH: QVQLQQSGAELVRPGASVTLSCKASGYTFTDYEMHWVRQTPVHGLEWIGGIDPESDNTVYNQKFKGKVTLTEDKSSSTAYMEFRSLTSEDSAVYYCTRGDWYFDVWGTGTTVTVSS VL: DIVMSQSPSSQAVSVGEKVTMTCKSSQSLLNSRTRENYLAWYQQKPGQSPKLLIYWASTRESGVPDRFTGSGSGADFTLTISSVQAEDLAVYYCGQSYNLFTFGSGTKLEIK | 0.43 nM | 15600 | 0.81 nM | 5420 | – | – | – | –
cAb3003 (antibody, V domains shown) VH: QVQLQQSGAELVRPGASVTLSCKASGYTFTGYEMHWVKQTPVHGLEWIGGIDPETDNTVYNQKFKGKAILTEDKSSSTAYMELRRLTSEDSAVYYCTRGDWYFDIWGTGTTVTVSS VL: DIVLSQSPSSQAVSVGEKVTMSCKSSQSLLNSRTRENYLAWYQQKPGQSPKLLIYWASTRESGVPDRFTGSGSGTDFTLTISSVQAEDLAVYYCQQSYNLFTFGSGTILEIK | 0.42 nM | 14300 | 0.68 nM | 5110 | – | – | – | –
cAb3005 (antibody, V domains shown) VH: QVQLQQSGAELARPGASVTLSCKASGYKFTDYEMHWVKETPVNGLEWIGGIDPETENTVYNQKFKVKAILTEDKSSRTAYMELRSLTSEDSAVYYCTRGDWYFDVWGTGTTVTVSS VL: DIVMSQSPSSQAVSVGEKVTMSCKSSQSLLNSRTRENYLAWYQQKAGQSPKLLIYWASTRDSGVPDRFTGSGSGTAFTLTINSVQAEDLAVYYCKQSYNLFTFGSGTKLEIK | 0.41 nM | 14700 | 0.52 nM | 4920 | – | – | – | –
cAb3034 (antibody, V domains shown) VH: QVQLQQSGAELARPGASVKMSCKASGYTFTSYTMHWVKQRPGQGLEWIGYINPRSDYTKYNQKVKDKATLTADKSSSTAYMQLSSLTSEDSAVYYCARGGLGLDYWGQGTTLTVSS VL: DIQMTQSPSSLSASLGERVSLTCRASQEISGYLSWLQQTPDGTIKRLIYAASTLHSGVPKRFSGSRSGSDYSLTISSLESEDFAGYYCLQYASYPYTFGGGTKLEIK | 0.37 nM | 17300 | 0.13 nM | 10100 | – | – | – | –
cAb3046 (antibody, V domains shown) VH: QVQLQQSGAELARPGASVKMSCKASGYTFTSYTMHWVKQRPGQGLEWIGYINPSSDYTKYNQKFKGKATMTADKSSSTAYMQLSSLTSEDSAVYYCGRGLVPFAYWGQGTLVTVSA VL: DIQMTQSPSSLSASLGERVSLTCRASQEISGYLIWLQQKPDGTIKRLIYAASTLDSGVPKRVSGSRSGSDYSLTISSLESEDFADYYCLQYASYPLTFGGGTKLELK | 0.48 nM | 16200 | 0.06 nM | 5180 | – | – | – | –
cAb314 (Fc fusion, VHH-hFc expressed in 293 cells; Parent of PR0071; also called chimeric nanobody; camel-derived SEZ6 chimeric antibody; not shown: The human Fc (hFc) of the VHH-hFc construct) VHH: HVQLVESGGGSVQAGGSLRLSCAVSGFTSSRGWMAWFRQAPGKEREGVAVIGRRSGDIYYADSLKGRFTISHDSTENTLYLQMNNLKPEDTATYYCAVGDQAGHVLTSSPYRYWGQGTQVTVSS | – | – | – | – | – | – | 0.38 nM | 8480
PR3132 (antibody, human IgG1, kappa, V domains shown, Humanized, human IgG1, kappa; also called humanized antibody of cAb3056) VH: EVQLVQSGAEVKKPGASVKISCKASGYTFTDYYINWMRQAPGQGLEWIGWIFPGSDNPYYNEMFKDRVTVTVDKSTSTVYMELSSLRSEDTAVYFCARGRYYGLYTMDYWGQGTLVTVSS VL: DIQMTQSPSSLSASVGDRVTITCRASQDIRNYLNWYQQKPGKAPKFLIYYTSRLHSGVPSRFSGSGSGTDFTLTISSLQPEDFATYYCQQGNTLPWTFGGGTKVEIKR | – | – | – | – | 1.72 nM | 1210 | – | –
cAb3056 (antibody, V domains shown) VH: QVQLQQSGPELMKPGASVKISCKASGYTFTDYYINWMKQRPGQGLEWIGWIFPGSDNPYYNEMFKDKATVSVDKSSSAVFMLLTSLTSEDSAVYFCARGRYYGLYTMDYWGQGTSVTVSS VL: DIQMTQTTSSLSASLGDRVTISCRASQDIRNYLNWYQQKADGTVKFLIYYTSRLHSGVPSRFSGSGSGTDFSLTISNLEQEDVATYFCQQGNTLPWTFGGGTKVEIK | 0.95 nM | 14600 | 0.42 nM | 6560 | – | – | – | –
cAb025 (Fc fusion, VHH-hFc expressed in 293 cells; Parent of PR0069; also called chimeric nanobody; camel-derived SEZ6 chimeric antibody; not shown: The human Fc (hFc) of the VHH-hFc construct) VHH: EVQLVESGGGSVQPGGSLRLSCEASGLTYNKDCMAWFRQAPGKEREGVAIINGVGRTRYADSVKGRFTISKDNAKNTLYLQMNNLKPEDTAMYYCAAQRASSSCGSLSRAWYDYWGRGTQVTVSS | – | – | – | – | – | – | 0.23 nM | 6600
